Data published in PMC10532679 (Life, 2023).

Experiments:
[1] = molecular target: T1, wild-type H6-PKA-Cα, untreated (alpha isoform of the catalytic subunit of cAMP-dependent protein kinase) (murine, UniProt P05132 2-351); experiment: SPR; OpenSPR-XT; CREBtide coupled to a carboxyl sensor; PKA-Cα flowed at 75 µL/min; 1X HBS-P+, 10 mM MgCl2, 0.01% NP-40, 0.5% BSA, 10 µM AMP-PNP, pH 7.4; kinetics analysis; apparent; details: both partners purified
[2] = molecular target: T1, wild-type H6-PKA-Cα, untreated (alpha …); experiment: SPR; OpenSPR-XT; CREBtide coupled (EDC/sulfo-NHS) to a carboxyl sensor, surface blocked with monomeric streptavidin and ethanolamine; PKA-Cα 0.078–10 µM flowed at 20 µL/min; 1X HBS-P+, 10 mM MgCl2, 0.01% NP-40, 0.5% BSA, 10 µM AMP-PNP, pH 7.4; equilibrium analysis; apparent; details: both partners purified

B1: CREBtide (peptide)
peptide: KRREILSRRPSYR
notes: Coupled by EDC/sulfo-NHS to the carboxyl sensor in SPR; source: bought: Alfa Aesar
Kd [1]: 2.8 ± 0.75 µM | Kd [2]: 3.3 ± 1 µM
